Measurements as given in patent publication US20240076392A1, “ANTI-CD123 BINDING MOLECULES AND USES THEREOF” (IGM Biosciences, Inc., priority 2021, published 2024).

Experiments:
[1] = molecular target: human CD123 on CHO cells expressing human CD123 (human) (UniProt P26951); assay: flow cytometry on CHO cells expressing human CD123, 4-parameter fit (direct binding; column headed IC50)
[2] = molecular target: human CD123 on CHO cells expressing human CD123 (human) (UniProt P26951); assay: flow cytometry on CHO cells expressing human CD123, 4-parameter fit

Chain of human CD123 on CHO cells expressing human CD123 (human) (P26951 19-378): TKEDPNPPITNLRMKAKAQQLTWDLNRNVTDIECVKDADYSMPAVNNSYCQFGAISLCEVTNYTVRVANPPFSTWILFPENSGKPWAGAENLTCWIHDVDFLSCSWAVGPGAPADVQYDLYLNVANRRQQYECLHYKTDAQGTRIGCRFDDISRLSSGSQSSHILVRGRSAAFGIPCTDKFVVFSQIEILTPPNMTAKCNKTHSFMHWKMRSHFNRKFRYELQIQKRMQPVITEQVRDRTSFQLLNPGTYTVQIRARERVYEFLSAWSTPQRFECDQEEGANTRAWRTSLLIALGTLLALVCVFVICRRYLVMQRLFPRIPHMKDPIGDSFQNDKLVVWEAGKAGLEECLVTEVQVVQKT

Row | EC50 (half-maximal binding concentration) [1] [nM] | Max binding intensity (MFI) [2] [MFI] | EC50 [1] [nM] | Binder
1 | 6.8 | 980000 | – | h32716-4-2 IgG (antibody, V domains shown) VH: QVQLVQSGPELKKPGASVKVSCKASGYIFTNYGMNWVRQAPGQGLEWMGWINTYTGESTYSADFKGRFVFSLDTSVSTAYLQISSLKAEDTAVYYCARSGGYDPMDYWGQGTLVTVSS VL: DIQMTQSPSSLSASVGDRVTITCRASESVDNYGNTFMHWYQQKPGKAPKLLIYRASNLESGVPSRFSGSGSGTDFTFTISSLQPEDIATYYCQQSNEDPPTFGQGTKVEIK
2 | – | 1.1e+06 | 7.2 | h32716-5-2 IgG (antibody, V domains shown) VH: QVQLVQSGPELKKPGASVKVSCKASGYIFTNYGMNWVKQAPGQGLEWMGWINTYTGESTYSADFKGRFVFSLDTSVSTAYLQISSLKAEDTAVYYCARSGGYDPMDYWGQGTLVTVSS VL: DIQMTQSPSSLSASVGDRVTITCRASESVDNYGNTFMHWYQQKPGKAPKLLIYRASNLESGVPSRFSGSGSGTDFTFTISSLQPEDIATYYCQQSNEDPPTFGQGTKVEIK
3 | 11 | 1e+06 | – | h32716-6-2 IgG (antibody, V domains shown) VH: QVQLVQSGPELKKPGASVKVSCKASGYIFTNYGMNWVKQAPGQGFKWMGWINTYTGESTYSADFKGRFVFSLDTSVSTAYLQISSLKAEDTAVYYCARSGGYDPMDYWGQGTLVTVSS VL: DIQMTQSPSSLSASVGDRVTITCRASESVDNYGNTFMHWYQQKPGKAPKLLIYRASNLESGVPSRFSGSGSGTDFTFTISSLQPEDIATYYCQQSNEDPPTFGQGTKVEIK
4 | 7.4 | 950000 | – | h32716-1-1 IgG (antibody, V domains shown) VH: QVQLVQSGAEVKKPGSSVKVSCKASGYIFTNYGMNWVRQAPGQGLEWMGWINTYTGESTYSADFKGRVTITADESTSTAYMELSSLRSEDTAVYYCARSGGYDPMDYWGQGTLVTVSS VL: DIVMTQSPDSLAVSLGERATINCRASESVDNYGNTFMHWYQQKPGQPPKLLIYRASNLESGVPDRFSGSGSGTDFTLTISSLQAEDVAVYYCQQSNEDPPTFGQGTRLEIK
5 | 11 | 930000 | – | h32716-2-1 IgG (antibody, V domains shown) VH: QVQLVQSGAEVKKPGSSVKVSCKASGYIFTNYGMNWVKQAPGQGLEWMGWINTYTGESTYSADFKGRFTFTLDESTSTAYMELSSLRSEDTAVYYCARSGGYDPMDYWGQGTLVTVSS VL: DIVMTQSPDSLAVSLGERATINCRASESVDNYGNTFMHWYQQKPGQPPKLLIYRASNLESGVPDRFSGSGSGTDFTLTISSLQAEDVAVYYCQQSNEDPPTFGQGTRLEIK
6 | 10 | 940000 | – | h32716-3-1 IgG (antibody, V domains shown) VH: QVQLVQSGAEVKKPGSSVKVSCKASGYIFTNYGMNWVKQAPGQGFKWMGWINTYTGESTYSADFKGRFTFTLDESTSTAYMELSSLRSEDTAVYYCARSGGYDPMDYWGQGTLVTVSS VL: DIVMTQSPDSLAVSLGERATINCRASESVDNYGNTFMHWYQQKPGQPPKLLIYRASNLESGVPDRFSGSGSGTDFTLTISSLQAEDVAVYYCQQSNEDPPTFGQGTRLEIK
7 | – | 910000 | 11 | 32716 IgG (antibody, V domains shown) VH: QIQLVQSGPELKKPGETVKISCKASGYIFTNYGMNWVKQAPGKSFKWMGWINTYTGESTYSADFKGRFAFSLETSASTAYLHINDLKNEDTATYFCARSGGYDPMDYWGQGTSVTVSS VL: DIVLTQSPASLAVSLGQRATISCRASESVDNYGNTFMHWYQQKPGQPPKLLIYRASNLESGIPARFSGSGSRTDFTLTINPVEADDVATYYCQQSNEDPPTFGAGTKLELK
